# From patent publication US20070020327A1
# Molecular target: HLA-A*2401 (human)
# Assay: inhibition of binding of a 125I-labelled standard peptide to purified HLA, gel filtration
# Conditions: not given
row,Substance,binding affinity ratio (IC50 of the standard peptide / IC50 of the test peptide)
1,"PAP peptide … (position 123, 9 amino acids)",0.0033
2,"PSA peptide … (position 190, 9 amino acids)",0.031

# Second part, the substance after the results:
row,binding affinity ratio (IC50 of the standard peptide / IC50 of the test peptide),Substance
1,0.0045,"PAP peptide … (position 22, 10 amino acids)"
2,0.014,"PAP peptide … (position 123, 10 amino acids)"
3,0.0024,"PAP peptide … (position 205, 9 amino acids)"
4,12,"PSM peptide … (position 606, 9 amino acids)"

# Molecular target: HLA-A*2401 (human)
# Assay: competition with a 125I-labelled standard peptide for purified HLA class I, bound and free peptide separated by gel filtration
# Conditions: not given
row,binding affinity ratio (IC50 of the standard peptide / IC50 of the test peptide),Substance
1,0.0001,"Kallikrein (hK2) peptide …, position 156, 10 amino acids"
2,0.055,"Kallikrein (hK2) peptide …, position 248, 10 amino acids"
3,0.0001,"PSA peptide …, position 152, 10 amino acids"
4,0.055,"PSA peptide …, position 244, 10 amino acids"
5,0.054,"PSM peptide …, position 409, 10 amino acids"

# Molecular target: HLA-A*2401 (human)
# Assay: competition with a 125I-labelled standard peptide for purified HLA, gel filtration
# Conditions: not given
row,Substance,binding affinity ratio (IC50 of the standard peptide / IC50 of the test peptide)
1,"PSA peptide … (position 2, 10 amino acids)",0.0062
2,"PSA peptide … (position 9, 9 amino acids)",0.11
3,"PSA peptide … (position 9, 10 amino acids)",0.36
4,"PSM peptide … (position 624, 10 amino acids)",3.2

# Second part, the substance after the results:
row,binding affinity ratio (IC50 of the standard peptide / IC50 of the test peptide),Substance
1,0.0005,"PAP peptide … (position 41, 10 amino acids)"
2,2.1,"PSA peptide … (position 2, 9 amino acids)"

# Molecular target: HLA-A*2401 (human)
# Assay: competition with 125I-labeled probe peptide for purified HLA, gel filtration
# Conditions: scale: ratio
row,binding affinity ratio (relative to standard peptide),Substance
1,0.0067,"PAP peptide … (position 83, 10 amino acids)"
2,0.0001,"PSA peptide … (position 98, 9 amino acids)"
3,0.001,"PSM peptide … (position 621, 9 amino acids)"

# Molecular target: HLA-A*2401 (human)
# Assay: competitive inhibition of 125I-labelled standard peptide binding to purified HLA, gel filtration
# Conditions: not given
row,binding affinity ratio (IC50 of standard peptide / IC50 of test peptide),Substance
1,0.11,"PAP peptide … (position 183, 9 amino acids)"
2,0.024,"PAP peptide … (position 309, 10 amino acids)"
3,0.77,"PSM peptide … (position 178, 9 amino acids)"
4,0.0001,"PSM peptide … (position 638, 9 amino acids)"

# Molecular target: HLA-A*2401 (human)
# Assay: competition with 125I-labelled standard peptide for purified HLA, gel filtration
# Conditions: not given
row,Substance,binding affinity ratio (IC50 of the standard peptide / IC50 of the test peptide)
1,"PAP peptide … (position 17, 9 amino acids)",0.0016
2,"PSM peptide … (position 31, 9 amino acids)",0.019
3,"PSM peptide … (position 32, 10 amino acids)",0.0026
4,"PSM peptide … (position 582, 10 amino acids)",0.0002
5,"… (PSA, position 96, 11 amino acids) (peptide)",0.12
6,"… (PSM, position 74, 10 amino acids) (peptide)",0.23
7,"… (PSM, position 668, 9 amino acids) (peptide)",0.0075

# Other lines, results leading:
row,binding affinity ratio (IC50 of the standard peptide / IC50 of the test peptide),Substance
1,0.0007,"PAP peptide … (position 17, 10 amino acids)"
2,0.0017,"PAP peptide … (position 23, 9 amino acids)"
3,1.1,"PSM peptide … (position 565, 10 amino acids)"
4,0.0022,"… (PAP, position 70, 10 amino acids) (peptide)"
5,0.44,"… (PAP, position 213, 9 amino acids) (peptide)"
6,2.5,"… (PAP, position 318, 9 amino acids) (peptide)"
7,0.44,"… (PSM, position 227, 9 amino acids) (peptide)"

# Molecular target: HLA-A*2401 (human)
# Assay: competition with 125I-labelled standard peptide for purified HLA, gel filtration; relative binding
# Conditions: not given
row,binding affinity ratio (IC50 of standard peptide / IC50 of test peptide),Substance
1,0.26,"… (PAP, position 96) (peptide)"
2,0.0007,"… (PSA, position 54) (peptide)"
3,0.0001,"… (PSA, position 224) (peptide)"
4,0.77,"… (PSM, position 178) (peptide)"
5,3.2,"… (PSM, position 624) (peptide)"

# Molecular target: HLA-A*2401 molecule, purified HLA class I (human)
# Assay: competition with 125I-labelled probe peptide for purified HLA, gel filtration; relative binding
# Conditions: not given
row,binding affinity ratio (IC50 of the standard peptide / IC50 of the test peptide),Substance
1,0.0013,"PAP peptide … (position 62, 9 amino acids)"
2,0.26,"PAP peptide … (position 96, 9 amino acids)"
3,0.0001,"PSA peptide … (position 224, 9 amino acids)"

# Molecular target: HLA-A*2401 (human)
# Assay: competition with a 125I-labelled standard peptide for purified HLA, gel filtration; value relative to the standard peptide
# Conditions: not given
row,binding affinity ratio (IC50 of the standard peptide / IC50 of the test peptide),Substance
1,0.032,"PAP peptide … (position 302, 9 amino acids)"
